Experiments:
[1] = target: murine double minute 2 (MDM2) protein fragment; assay: photonic crystal bound-states-in-the-continuum resonance shift (label-free optical biosensor); MDM2 immobilised on the Si3N4 photonic crystal by APTES and BS3 (1.5 uM in 20 mM HEPES pH 7.4, 4 °C overnight), blocked with 5% non-fat dried milk in PBS; p53 1.5 uM in PBS, 20 min at room temperature, washed with PBS; transmission spectrum at θ = 0°
[2] = target: murine double minute 2 (MDM2) protein fragment; assay: atomic force microscopy; topographic maps of 20 x 20 µm^2 of the MDM2-functionalised photonic crystal surface after incubation with p53 (1.5 uM, 20 min); binding spots 10-20 nm high counted as p53•MDM2 complex; set-up: unit not given here

For “p53 protein fragment (interacting domain of p53) (domain or fragment)”, the shift of the resonance wavelength [1] was 2.4 nm and the surface density of the complex [2] was 0.24.
